According to patent publication US20150239980A1 (NEOTOPE BOSCIENCES, published 2015):

T1: recombinant hMCAM-His (human, UniProt P43121 24-559)
T1 construct: not shown: His tag
T1 chain: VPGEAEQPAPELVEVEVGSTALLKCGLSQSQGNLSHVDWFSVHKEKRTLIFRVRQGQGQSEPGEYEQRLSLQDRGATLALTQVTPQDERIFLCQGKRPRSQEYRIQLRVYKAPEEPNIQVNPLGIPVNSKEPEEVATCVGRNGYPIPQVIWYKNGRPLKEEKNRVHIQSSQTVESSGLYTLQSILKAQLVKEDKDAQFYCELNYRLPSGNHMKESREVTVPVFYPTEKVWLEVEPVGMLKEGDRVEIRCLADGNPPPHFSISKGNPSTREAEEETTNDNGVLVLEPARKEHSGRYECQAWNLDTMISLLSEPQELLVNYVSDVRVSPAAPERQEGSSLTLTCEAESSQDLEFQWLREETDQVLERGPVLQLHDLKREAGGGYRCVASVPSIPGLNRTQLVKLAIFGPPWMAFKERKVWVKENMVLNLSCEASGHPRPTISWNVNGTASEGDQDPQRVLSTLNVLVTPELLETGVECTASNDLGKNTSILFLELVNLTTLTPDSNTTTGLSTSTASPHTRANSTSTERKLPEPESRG

T2: human MCAM (melanoma cell adhesion molecule) expressed on transfected CHO cells (human, UniProt P43121 24-646)
T2 construct: also called hMCAM; CD146
T2 chain: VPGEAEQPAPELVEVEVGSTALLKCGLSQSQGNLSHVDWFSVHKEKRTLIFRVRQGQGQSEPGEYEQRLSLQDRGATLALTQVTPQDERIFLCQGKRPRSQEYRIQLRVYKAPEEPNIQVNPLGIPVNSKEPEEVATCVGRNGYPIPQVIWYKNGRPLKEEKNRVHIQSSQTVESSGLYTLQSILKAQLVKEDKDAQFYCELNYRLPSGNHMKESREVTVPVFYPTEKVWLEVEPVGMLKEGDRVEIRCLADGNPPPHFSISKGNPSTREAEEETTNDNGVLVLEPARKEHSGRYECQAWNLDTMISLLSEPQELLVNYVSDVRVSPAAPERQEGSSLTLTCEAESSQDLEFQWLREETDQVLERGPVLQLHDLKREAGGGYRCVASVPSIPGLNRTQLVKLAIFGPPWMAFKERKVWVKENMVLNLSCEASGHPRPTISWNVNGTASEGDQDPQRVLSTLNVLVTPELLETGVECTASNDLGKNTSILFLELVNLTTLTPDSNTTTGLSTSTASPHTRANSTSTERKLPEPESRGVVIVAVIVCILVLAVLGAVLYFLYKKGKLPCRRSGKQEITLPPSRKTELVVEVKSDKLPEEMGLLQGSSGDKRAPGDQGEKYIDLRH


What was measured:
[1] = target: T1, recombinant hMCAM-His; assay: competitive ELISA on hMCAM-His, competitor biotinylated rodent or chimeric 2120; Expt. #1; vs rodent 2120
Procedure: (§1) ELISA plates were coated with recombinant hMCAM-His, and blocked with casein buffer to prevent non-specific binding. Biotinylated rodent or chimeric antibody was added at a subsaturating concentration, in the presence or absence of 3× increasing concentrations of unlabeled competitor (humanized antibody, rodent, or chimeric). After washing to remove unbound antibody, streptavidin HRP was added to allow detection of the biotinylated antibody. The ELISA was developed with TMB substrate and the OD450 was measured. The IC50 of the unlabeled competitor was determined using the GraphPad Prism5 software.

[2] = target: T1, recombinant hMCAM-His; assay: summary of ForteBio, hMCAM-His; vs rodent 2120
Procedure: (§2) The affinities were measured using the ForteBio Octet Red. Anti-human Fc sensors were used to capture the humanized antibodies, and several concentrations of hMCAMHis analyte were used to determine the affinity using a 1:1 fitting model.

[3] = target: T1, recombinant hMCAM-His; assay: ForteBio Octet Red, hMCAM-His analyte; Expt. #1; vs rodent 2120
Procedure: as §2

[4] = target: T1, recombinant hMCAM-His; assay: competitive ELISA on hMCAM-His, competitor biotinylated rodent or chimeric 1749; Expt. #2; vs rodent 1749
Procedure: as §1

[5] = target: T1, recombinant hMCAM-His; assay: ForteBio Octet Red, hMCAM-His analyte; Expt. #2; vs rodent 1749
Procedure: as §2

[6] = target: T2, human MCAM (melanoma cell adhesion …); assay: laminin/FACS blocking assay, % inhibition of laminin 411 binding to hMCAM-expressing CHO cells against antibody concentration; blocked ligand: laminin 411
Procedure: (§3) Following incubation for 30-45 minutes, the cells were washed and anti-laminin conjugated to AF650 (NovusBio) was added to detect the bound laminin. The cells were run on a flow cytometer to measure the laminin binding signal.

[7] = target: T1, recombinant hMCAM-His; assay: ForteBio Octet Red, hMCAM-His analyte; Forte column 1; vs rodent 1749
Procedure: as §2

[8] = target: T2, human MCAM (melanoma cell adhesion …); assay: laminin/FACS on hMCAM CHO cells, competitor laminin 411; Expt#1; vs rodent 1749
Procedure: as §3

[9] = target: T1, recombinant hMCAM-His; assay: competitive ELISA on hMCAM-His, competitor biotinylated rodent or chimeric 1749; Expt. #1; vs rodent 1749
Procedure: as §1

[10] = target: T2, human MCAM (melanoma cell adhesion …); assay: laminin/FACS on hMCAM CHO cells, competitor laminin 411; Expt#2; vs rodent 1749
Procedure: as §3

[11] = target: T2, human MCAM (melanoma cell adhesion …); assay: summary of laminin blocking assay on hMCAM CHO cells, competitor laminin 411; vs rodent 1749
Procedure: as §3

[12] = target: T1, recombinant hMCAM-His; assay: summary of ForteBio and competitive ELISA on hMCAM-His; vs rodent 1749
Procedure: as §1, §2

[13] = target: T1, recombinant hMCAM-His; assay: ForteBio Octet Red, hMCAM-His analyte; Expt. #1; vs rodent 1749
Procedure: as §2

[14] = target: T1, recombinant hMCAM-His; assay: competitive ELISA on hMCAM-His, competitor biotinylated rodent or chimeric 1749; vs rodent 1749
[15] = target: T1, recombinant hMCAM-His; assay: competitive ELISA on hMCAM-His, competitor biotinylated rodent or chimeric 2107; Expt. #1; vs rodent 2107
Procedure: as §1

[16] = target: T1, recombinant hMCAM-His; assay: summary of ForteBio and competitive ELISA on hMCAM-His; vs rodent 2107
Procedure: as §1, §2

[17] = target: T1, recombinant hMCAM-His; assay: ForteBio Octet Red, hMCAM-His analyte; Expt. #1; vs rodent 2107
Procedure: as §2

[18] = target: T2, human MCAM (melanoma cell adhesion …); assay: summary of laminin blocking assay on hMCAM CHO cells, competitor laminin 411; vs rodent 2107
Procedure: as §3

fold over rodent (competitive ELISA) [1] [fold] | fold reduction in affinity as measured by ForteBio [2] [fold] | fold over rodent (Forte affinity) [3] [fold] | fold over rodent (competitive ELISA) [4] [fold] | fold over rodent (Forte affinity) [5] [fold] | IC50 (read off the curve) [6] [µg/mL] | fold over rodent (Forte affinity) [7] [fold] | fold over rodent (blocking, laminin/FACS) [8] [fold] | fold over rodent (competitive ELISA) [9] [fold] | fold over rodent (blocking, laminin/FACS) [10] [fold] | fold reduction in potency compared to the rodent [11] [fold] | fold reduction in affinity compared to the rodent [12] [fold] | fold over rodent (Forte affinity) [13] [fold] | fold over rodent (competitive ELISA) [14] [fold] | fold over rodent (competitive ELISA) [15] [fold] | fold reduction in affinity compared to the rodent [16] [fold] | fold over rodent (Forte affinity) [17] [fold] | fold reduction in potency compared to the rodent [18] [fold] | Binder
3.47 | > 5 | 16.1 | – | – | – | – | – | – | – | – | – | – | – | – | – | – | – | h2120_VH3 + h2120_VL3 (antibody, human IgG1, V domains shown) VH: QVTLKESGPVLVKPTETLTLTCTVSGFSLTSSGVSWVRQPPGKALEWIAAISSGGTTYYNSAFKSRLTISRDTSKSQVVLTMTNMDPVDTATYYCARRYGYGWYFDFWGQGTLVTVSS VL: DIQMTQSPSSLSASVGDRVTINCKASQNIYNSLAWYQQKPGKAPKVLIFNANSLQTGIPSRFSGSGSGTDFTLTISSLQPEDFATYYCQQFYSGYTFGQGTKLEIK
– | – | – | 0.97 | 0.79 | ~0.5 | 0.6 | 1.4 | 0.81 | 1.4 | – | – | – | – | – | – | – | – | chimeric 1749 (antibody, V domains shown) VH: DVKLVESGGDLVKPGGSLKLSCAASGFTFSSYIMSWVRQTPEKRLEWVATISSGGSSTYYPDSVKGRFTISRDNAKNTLYLQMSSLKSEDTAMYYCTRDDDYDVKVFAYWGQGTLVTVSA VL: DIVMSQSPSSLAVSAGEKVTMNCKSSRSLLNSRIRKNYLAWYQQKPGQSPKLLIYWASTRESGVPDRFTGSGSGTDFTLTISSVQAEDLAVYYCKQSYNLLTFGAGTKLELK
– | – | – | 1.46 | 1.09 | ~0.4 | 0.7 | 1.8 | 1.28 | 1.7 | < 2 | < 2 | 0.73 | 1.1 | – | – | – | – | h1749VH2 + h1749VL2 (antibody, human IgG1, V domains shown, also called humanized 1749 conservative VH and VL) VH: EVQLVESGGGLVQPGGSLRLSCAASGFTFSSYIMSWVRQAPGKRLEWVATISSGGSSTYYPDSVKGRFTISRDNAKNSLYLQMNSLRAEDTAVYYCTRDDDYDVKVFAYWGQGTMVTVSS VL: DIVMTQSPDSLAVSLGERATINCKSSRSLLNSRIRKNYLAWYQQKPGQPPKLLIYWASTRESGVPDRFTGSGSGTDFTLTISSLQAEDVAVYYCKQSYNLLTFGQGTKVEIK
– | – | – | 1.35 | 2.41 | – | 2.5 | 1.4 | 1.26 | 1.4 | < 2 | < 2 | 2.5 | 1 | – | – | – | – | h1749VH1 + h1749VL1 (antibody, human IgG1, V domains shown, also called humanized 1749 standard VH and VL) VH: EVQLVESGGGLVQPGGSLRLSCAASGFTFSSYIMSWVRQAPGKGLEWVATISSGGSSTYYPDSVKGRFTISRDNAKNSLYLQMNSLRAEDTAVYYCTRDDDYDVKVFAYWGQGTMVTVSS VL: DIVMTQSPDSLAVSLGERATINCKSSRSLLNSRIRKNYLAWYQQKPGQPPKLLIYWASTRESGVPDRFSGSGSGTDFTLTISSLQAEDVAVYYCKQSYNLLTFGQGTKVEIK
– | – | – | – | – | – | – | – | – | – | – | – | – | – | 1.62 | < 3 | 2.54 | < 3 | h2107_VH3 + h2107_VL2 (antibody, human IgG1, V domains shown, also called VH3VL2) VH: QVTLKESGPVLVKPTETLTLTCTVSGFSLTSNGVSWVRQPPGKALEWIAAISSGGSTYYNSAFKSRLTISRNTSKSQVVLTMTNMDPVDTATYYCARHRPFYFDYWGQGTLVTVSS VL: DIQMTQSPSSLSASVGDRVTITCKGSQNIYKSLAWFQLKPGKVPKLLIYDANSLQTGIPSRFSGSGSGTDFTLTISSLQPEDVATYYCQQYYSGYTFGGGTKVEIK
